Reference: US6864054

Molecular target: endogenous p53 (MRC5.SV40 cells; U-2 OS cells) (UniProt P04637)
Test: cell-based or functional assay

Chain of full-length CBP, P45481 2-2441 (P45481 2-2441 limits assumed): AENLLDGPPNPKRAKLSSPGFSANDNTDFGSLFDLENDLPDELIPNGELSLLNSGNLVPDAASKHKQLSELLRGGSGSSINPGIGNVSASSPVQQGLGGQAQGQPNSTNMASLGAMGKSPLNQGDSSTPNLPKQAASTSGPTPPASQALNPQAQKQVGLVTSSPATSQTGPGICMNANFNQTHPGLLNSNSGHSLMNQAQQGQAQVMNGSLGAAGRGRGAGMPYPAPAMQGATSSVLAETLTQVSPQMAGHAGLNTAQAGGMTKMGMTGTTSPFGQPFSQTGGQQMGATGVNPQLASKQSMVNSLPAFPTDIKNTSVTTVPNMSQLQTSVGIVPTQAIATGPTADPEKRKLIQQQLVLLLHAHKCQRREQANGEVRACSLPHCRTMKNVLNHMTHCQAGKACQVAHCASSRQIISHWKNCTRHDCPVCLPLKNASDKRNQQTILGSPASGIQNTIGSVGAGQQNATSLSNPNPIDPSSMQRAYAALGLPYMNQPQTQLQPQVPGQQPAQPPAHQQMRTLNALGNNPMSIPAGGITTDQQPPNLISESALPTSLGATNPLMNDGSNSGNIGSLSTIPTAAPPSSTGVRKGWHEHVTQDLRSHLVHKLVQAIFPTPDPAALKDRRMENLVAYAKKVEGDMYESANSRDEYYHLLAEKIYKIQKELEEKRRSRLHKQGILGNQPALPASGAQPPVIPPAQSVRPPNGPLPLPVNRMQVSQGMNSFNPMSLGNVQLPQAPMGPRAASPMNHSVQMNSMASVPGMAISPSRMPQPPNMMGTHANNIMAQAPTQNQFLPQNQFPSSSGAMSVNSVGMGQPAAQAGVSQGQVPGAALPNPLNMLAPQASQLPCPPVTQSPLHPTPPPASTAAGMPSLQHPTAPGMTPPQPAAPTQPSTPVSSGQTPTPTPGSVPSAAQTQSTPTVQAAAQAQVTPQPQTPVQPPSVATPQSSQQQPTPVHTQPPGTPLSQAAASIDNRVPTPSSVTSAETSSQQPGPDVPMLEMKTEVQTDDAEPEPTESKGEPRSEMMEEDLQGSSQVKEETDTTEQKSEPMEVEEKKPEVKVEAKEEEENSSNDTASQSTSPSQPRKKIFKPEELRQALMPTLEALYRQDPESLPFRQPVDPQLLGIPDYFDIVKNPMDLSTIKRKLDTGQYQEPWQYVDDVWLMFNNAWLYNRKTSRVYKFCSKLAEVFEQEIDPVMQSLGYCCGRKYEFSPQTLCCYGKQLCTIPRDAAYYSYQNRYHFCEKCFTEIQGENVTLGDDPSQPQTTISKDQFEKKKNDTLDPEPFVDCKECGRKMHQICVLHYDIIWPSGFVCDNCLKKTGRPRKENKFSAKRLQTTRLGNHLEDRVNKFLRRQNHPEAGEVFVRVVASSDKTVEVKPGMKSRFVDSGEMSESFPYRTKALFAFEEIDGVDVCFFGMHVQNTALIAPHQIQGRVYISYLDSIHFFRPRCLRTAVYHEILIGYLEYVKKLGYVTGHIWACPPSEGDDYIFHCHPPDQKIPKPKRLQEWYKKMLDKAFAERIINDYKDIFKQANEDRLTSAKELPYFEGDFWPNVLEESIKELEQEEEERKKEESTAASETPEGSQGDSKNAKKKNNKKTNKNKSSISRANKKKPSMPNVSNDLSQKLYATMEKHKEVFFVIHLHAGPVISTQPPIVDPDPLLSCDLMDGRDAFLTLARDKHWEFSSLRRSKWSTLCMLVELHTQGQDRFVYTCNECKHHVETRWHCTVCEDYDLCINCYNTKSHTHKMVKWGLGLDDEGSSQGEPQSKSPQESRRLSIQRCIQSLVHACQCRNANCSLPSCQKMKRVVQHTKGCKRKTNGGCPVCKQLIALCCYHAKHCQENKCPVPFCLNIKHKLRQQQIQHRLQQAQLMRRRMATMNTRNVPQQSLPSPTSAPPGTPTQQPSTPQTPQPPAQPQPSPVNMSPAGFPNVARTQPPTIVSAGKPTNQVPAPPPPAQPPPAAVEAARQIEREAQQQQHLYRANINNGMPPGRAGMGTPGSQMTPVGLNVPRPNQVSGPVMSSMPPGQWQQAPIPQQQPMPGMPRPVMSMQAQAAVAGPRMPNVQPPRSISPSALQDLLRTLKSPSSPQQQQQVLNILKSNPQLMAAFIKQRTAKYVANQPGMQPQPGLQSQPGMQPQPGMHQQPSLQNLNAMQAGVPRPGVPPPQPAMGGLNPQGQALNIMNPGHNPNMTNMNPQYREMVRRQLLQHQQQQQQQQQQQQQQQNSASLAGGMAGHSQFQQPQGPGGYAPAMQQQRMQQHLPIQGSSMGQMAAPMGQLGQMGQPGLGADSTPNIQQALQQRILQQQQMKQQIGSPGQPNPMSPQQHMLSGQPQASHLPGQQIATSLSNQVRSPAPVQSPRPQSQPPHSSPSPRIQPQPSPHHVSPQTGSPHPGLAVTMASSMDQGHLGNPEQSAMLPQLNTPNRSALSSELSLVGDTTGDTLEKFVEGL
Chain of endogenous p53 (MRC5.SV40 cells; U-2 OS cells) (P04637 whole entry): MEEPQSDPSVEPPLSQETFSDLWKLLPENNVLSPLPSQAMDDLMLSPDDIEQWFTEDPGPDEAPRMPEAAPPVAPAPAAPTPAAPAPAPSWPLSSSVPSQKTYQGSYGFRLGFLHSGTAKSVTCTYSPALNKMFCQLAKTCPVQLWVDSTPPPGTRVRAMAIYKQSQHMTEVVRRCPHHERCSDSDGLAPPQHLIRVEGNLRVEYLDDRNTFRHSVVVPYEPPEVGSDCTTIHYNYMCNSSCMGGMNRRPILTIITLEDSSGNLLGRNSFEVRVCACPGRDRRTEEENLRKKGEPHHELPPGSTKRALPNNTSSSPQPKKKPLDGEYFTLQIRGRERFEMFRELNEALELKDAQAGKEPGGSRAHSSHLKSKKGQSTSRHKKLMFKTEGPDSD

Work on full-length CBP, P45481 2-2441 yielded a p53-dependent transcription (PG13CAT reporter, U2-OS cells) of 7 fold.
